Results taken from publication PMC4278885.

Legend:
[1] = target: GFP-binding nanobody Enhancer (camelid); experiment: Molecular Force Assay (Protein-MFA); multiplexed measurement of Fig. 2B: nanobody on the glass slide, sfGFP on the DNA reference; references compared: unmodified 40 bp DNA, 40 bp DNA with propynyl bases, 20 bp DNA with polyamide P1, P2 or P3 (1 uM); pH 7.4; read-out NF
[2] = target: GFP-binding nanobody Enhancer (camelid); experiment: Molecular Force Assay (Protein-MFA); Enhancer covalently on the glass slide via its C-terminus (PEG linker); GFP attached at its N-terminus to the DNA reference; reference 20 bp DNA stabilized with polyamide P1; one contact process with a single stamp; retraction 1 um/s; read-out Normalized Fluorescence (NF), 0.5 = protein bond as strong as the reference

GFP-binding nanobody Enhancer (camelid), sequence (heavy, as listed by the source): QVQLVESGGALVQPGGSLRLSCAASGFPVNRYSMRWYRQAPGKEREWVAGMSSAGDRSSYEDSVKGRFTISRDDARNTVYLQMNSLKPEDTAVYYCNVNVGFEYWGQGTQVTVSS

What does the source list for “superfolder GFP (from UniProt P42212 1-238) (natural protein)”?
Normalized Fluorescence (NF), 40 bp DNA reference with propynyl bases [1]: 0.8; Normalized Fluorescence (NF), 20 bp DNA reference with polyamide P1 [2]: 0.353
